Earlier results, collected in publication PMC4355281.

Target: PKA RII (UniProt P13861)
Sequence (P13861 2-404): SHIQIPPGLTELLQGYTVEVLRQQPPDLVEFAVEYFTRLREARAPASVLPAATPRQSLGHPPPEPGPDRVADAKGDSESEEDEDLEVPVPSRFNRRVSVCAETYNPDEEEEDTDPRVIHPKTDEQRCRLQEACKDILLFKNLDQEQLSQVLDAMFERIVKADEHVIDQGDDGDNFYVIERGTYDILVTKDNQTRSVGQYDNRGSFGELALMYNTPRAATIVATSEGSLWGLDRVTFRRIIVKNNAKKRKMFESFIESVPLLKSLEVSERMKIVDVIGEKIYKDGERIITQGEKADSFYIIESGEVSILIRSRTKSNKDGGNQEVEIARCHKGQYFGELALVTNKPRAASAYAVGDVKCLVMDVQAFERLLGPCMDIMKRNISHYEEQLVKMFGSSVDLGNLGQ

Sequence of mAKAPβ (Q9WVC7 245-2314): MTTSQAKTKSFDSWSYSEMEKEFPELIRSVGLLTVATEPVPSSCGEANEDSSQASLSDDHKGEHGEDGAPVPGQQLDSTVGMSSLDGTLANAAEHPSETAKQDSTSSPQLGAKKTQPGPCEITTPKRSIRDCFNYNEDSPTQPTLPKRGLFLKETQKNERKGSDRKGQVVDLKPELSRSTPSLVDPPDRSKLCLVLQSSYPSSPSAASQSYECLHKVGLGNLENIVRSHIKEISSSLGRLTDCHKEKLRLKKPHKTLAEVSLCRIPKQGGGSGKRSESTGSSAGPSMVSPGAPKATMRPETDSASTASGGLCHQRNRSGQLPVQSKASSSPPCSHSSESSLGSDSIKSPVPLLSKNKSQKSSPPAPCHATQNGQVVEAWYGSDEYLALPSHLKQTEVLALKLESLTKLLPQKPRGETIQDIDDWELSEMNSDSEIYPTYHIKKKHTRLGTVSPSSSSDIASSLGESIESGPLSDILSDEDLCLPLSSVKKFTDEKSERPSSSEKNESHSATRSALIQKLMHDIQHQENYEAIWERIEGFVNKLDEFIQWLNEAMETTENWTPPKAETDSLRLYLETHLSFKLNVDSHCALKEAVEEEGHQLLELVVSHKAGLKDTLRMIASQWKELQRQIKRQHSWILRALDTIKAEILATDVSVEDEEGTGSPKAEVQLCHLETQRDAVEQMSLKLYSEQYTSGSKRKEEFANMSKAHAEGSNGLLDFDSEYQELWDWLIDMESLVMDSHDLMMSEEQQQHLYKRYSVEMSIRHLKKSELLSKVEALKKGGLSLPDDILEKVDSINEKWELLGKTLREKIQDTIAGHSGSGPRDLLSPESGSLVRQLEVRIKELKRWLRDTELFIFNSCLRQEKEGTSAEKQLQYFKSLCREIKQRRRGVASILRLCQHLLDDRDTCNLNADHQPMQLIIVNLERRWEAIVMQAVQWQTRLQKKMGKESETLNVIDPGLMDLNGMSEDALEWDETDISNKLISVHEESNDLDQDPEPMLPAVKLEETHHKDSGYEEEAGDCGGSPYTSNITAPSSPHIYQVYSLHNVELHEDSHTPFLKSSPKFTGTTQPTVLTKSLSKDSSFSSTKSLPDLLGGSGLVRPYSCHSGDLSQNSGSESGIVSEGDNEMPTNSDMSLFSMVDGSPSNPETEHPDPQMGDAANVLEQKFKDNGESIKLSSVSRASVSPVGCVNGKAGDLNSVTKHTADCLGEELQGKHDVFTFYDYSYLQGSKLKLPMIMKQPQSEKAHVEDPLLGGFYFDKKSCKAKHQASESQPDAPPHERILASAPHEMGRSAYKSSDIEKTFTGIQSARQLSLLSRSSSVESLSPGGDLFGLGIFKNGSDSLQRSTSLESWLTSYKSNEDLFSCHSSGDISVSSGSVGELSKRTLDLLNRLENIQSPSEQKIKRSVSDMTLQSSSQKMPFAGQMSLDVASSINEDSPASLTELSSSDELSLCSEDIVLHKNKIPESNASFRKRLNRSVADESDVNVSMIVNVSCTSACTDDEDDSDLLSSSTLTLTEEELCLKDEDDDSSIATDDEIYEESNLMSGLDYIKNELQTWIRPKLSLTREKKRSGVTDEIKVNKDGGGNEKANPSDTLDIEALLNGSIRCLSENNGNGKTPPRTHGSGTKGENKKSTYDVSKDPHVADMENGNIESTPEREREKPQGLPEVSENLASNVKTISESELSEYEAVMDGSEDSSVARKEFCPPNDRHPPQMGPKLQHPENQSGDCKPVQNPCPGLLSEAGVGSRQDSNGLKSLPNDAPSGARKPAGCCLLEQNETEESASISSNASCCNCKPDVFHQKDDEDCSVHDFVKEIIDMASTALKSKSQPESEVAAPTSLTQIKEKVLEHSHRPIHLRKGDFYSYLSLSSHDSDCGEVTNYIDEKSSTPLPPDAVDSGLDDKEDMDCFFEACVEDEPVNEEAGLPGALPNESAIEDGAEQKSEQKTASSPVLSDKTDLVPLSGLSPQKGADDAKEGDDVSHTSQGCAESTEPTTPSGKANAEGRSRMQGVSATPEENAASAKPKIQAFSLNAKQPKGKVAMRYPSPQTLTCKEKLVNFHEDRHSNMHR

mAKAPβ (from UniProt Q9WVC7)
Kd: 119 nM
